Data reported in patent US20200138716A1, “COMPOSITIONS AND METHODS FOR INDUCING NANOPARTICLE-MEDIATED MICROVASCULAR EMBOLIZATION OF TUMORS” (Poseida Therapeutics, Inc., priority 2014, published 2020).

Experiments:
[1] = Biodistribution and pharmacokinetics after IV injection in 4T1 tumor-bearing mice; type: in vivo, balb/c mice; conditions: via the kidneys and into the bladder
Protocol: In example studies, 0.5×106 to 1×10^6 4T1 mouse mammary carcinoma cells were injected into the mammary fat pads of balb/c mice. Once the tumors were greater than 5 mm in diameter, mice were randomized and treated via tail vein catheter with PEMs (at 100 μL of 2.5 mg/mL Mb, corresponding to 50 mg/mL polymer suspensions), empty polymersomes (at equivalent polymer doses), and NIR-Mb (at equivalent myoglobin doses) (n=5 per group). NIR-Mb and PEM were reduced to their oxy-myoglobin form prior to treatment, following protocols discussed above. […]
Fluorescence images were analyzed with Living Image) 4.2 software by measuring radiant efficiency of regions of interest (ROIs). […] The total radiant efficiency of the plasma in each capillary tube was measured in a region of interest of consistent dimensions. Plasma concentrations of PEM and empty polymersomes were calculated based on a standard curve, which was first determined by adding solutions of known concentrations of PZn3-loaded emissive polymersomes to untreated plasma and measuring fluorescence from the capillary tubes. […] Myoglobin concentration versus time was estimated based on the PZn3 fluorescence of the PEM and the IRDye800 fluorescence of NIR-Mb, respectively, with the assumption that all myoglobin remained associated with the PEM following injection.

[2] = Serum chemistry panel in tumor-bearing mice; type: in vivo; conditions: n=5 mice per treatment
Protocol: In example studies, 0.5×106 to 1×10^6 4T1 mouse mammary carcinoma cells were injected into the mammary fat pads of balb/c mice. Once the tumors were greater than 5 mm in diameter, mice were randomized and treated via tail vein catheter with PEMs (at 100 μL of 2.5 mg/mL Mb, corresponding to 50 mg/mL polymer suspensions), empty polymersomes (at equivalent polymer doses), and NIR-Mb (at equivalent myoglobin doses) (n=5 per group). NIR-Mb and PEM were reduced to their oxy-myoglobin form prior to treatment, following protocols discussed above. Mice were sacrificed at 24 h (for biodistribution/pharmacokinetic studies) or at 6-9 days (for histology and toxicology assessment following tumor efficacy studies). In both cases, EF-5 was used to stain for hypoxia and Hoechst solution for perfusion. Tumors were collected at sacrifice. Immunofluorescence (IF) was carried out to image EF-5 and Hoechst distribution throughout the tumors. The same tumor sections were also stained with hematoxylin and eosin (H&E) for immunohistologic (IHC) analysis. Blood was collected via cardiac puncture at sacrifice; plasma was isolated and stored at −80° C. for later analyses.
FIG. 21 provides results of a serum chemistry panel done for a set of tumor-bearing mice injected with each of the following treatments (n=5 mice per treatment): NIR-myoglobin (control), empty polymersomes (control), and PEMs.

B1: NIR-Mb: near-infrared fluorophore (IRDye800cw NHS) covalently attached to the lysines on horse skeletal myoglobin (conjugate, UniProt P68082 2-154, looked up)
Myoglobin: GLSDGEWQQVLNVWGKVEADIAGHGQEVLIRLFTGHPETLEKFDKFKHLKTEAEMKASEDLKKHGTVVLTALGGILKKKGHHEAELKPLAQSHATKHKIPIKYLEFISDAIIHVLHSKHPGDFGADAQGAMTKALELFRNDIAAKYKELGFQG
modifications: IRDye800CW on lysines
notes: near-infrared fluorophore (IRDye800cw NHS) covalently attached to the lysines on horse skeletal myoglobin
With B1 the plasma clearance [1] was “extremely rapid plasma clearance” and the serum chemistry panel [2] was “no consistently elevated levels for any parameter”.
